Reference: patent US20230257449A1

Molecular target: H1 HA (strain not stated) (influenza A virus H1)
Assay: HA binding EC50; column head not printed: H1 HA and pM inferred

| Binder | EC50 [pM] |
| --- | --- |
| FX-76-1-m3 (antibody, V domains shown) VH: QVQLLETGGGLVKPGQSLKLSCAASGFTFTSFAMHWVRQPPGKGLEWVAVVSYDGNYKYYADSVQGRFTISRDNSKNTLYLQMNSLRAEDTAVYYCAKDSRRRSLLYFEWLSQGYFNPWGQGTTLTVSS VL: DIQMTQSPSSLSASVGDRVTITCRSSQSITFDYKNYLAWYQQKPGKAPKLLIYWGSYLESGVPSRFSGSGSGTDFTLTISSLQPEDFATYYCQQHYRTPPSFGQGTKVEIK | 3.8 |

Molecular target: polyclonal human IgG
Assay: BLI (Octet) polyreactivity

| Binder | poly reactivity octet max binding response (nm) |
| --- | --- |
| FX-6-2-m3 (antibody, V domains shown) VH: QVQLVESGGGVVQPGRSLRLSCAASGFTFDTYAMHWVRQAPGKGLEWVAVISYDANYKYYADSVKGRFTISRDNSKNTLYLQMNSLRAEDTAVYYCARDSRLRSLLYFEWLSQGYFDYWGQGTLVTVSS VL: DIQMTQSPSSLSASVGDRVTITCRSSQSITFDYKNYLAWYQQKPGKAPKLLIYWGSSLQSGVPSRFSGSGSGTDFTLTISSLQPEDFATYYCQQHYRTPPSFGQGTKVEIK | 0.798 |
| FX-3-3-m3 (antibody, V domains shown) VH: QVQLVESGGGVVQPGRSLRLSCAASGFTFSTYAMHWVRQAPGKGLEWVAVISYDANYKYYADSVKGRFTISRDNSKNTLYLQMNSLRAEDTAVYYCAKDSQLRSLLYFEWLSQGYFDYWGQGTLVTVSS VL: DIQMTQSPSSLSASVGDRVTITCRSSQSITFDYKNYLAWYQQKPGKAPKLLIYAASSLQSGVPSRFSGSGSGTDFTLTISSLQPEDFATYYCQQHYRTPPSFGQGTKVEIK | 0.485 |
| FX-4-2-m3 (antibody, V domains shown) VH: QVQLVESGGGVVQPGRSLRLSCAASGFDFSTYAMHWVRQAPGKGLEWVAVISYDANYKYYADSVKGRFTISRDNSKNTLYLQMNSLRAEDTAVYYCARDSRLRSLLYFEWLSQGYFDYWGQGTLVTVSS VL: DIQMTQSPSSLSASVGDRVTITCRSSQSITFDYKNYLAWYQQKPGKAPKLLIYWGSSLQSGVPSRFSGSGSGTDFTLTISSLQPEDFATYYCQQHYRTPPSFGQGTKVEIK | 0.758 |
| FX-12-2-m3 (antibody, V domains shown) VH: QVQLVQSGAEVKKPGASVKVSCKASGFTFSTYAINWVRQATGQGLEWMGVISYDANYKYYAQKFQGRVTMTRDTSISTAYMELSSLRSEDTAVYYCARDSQLRSLLYFEWLSQGYFDYWGQGTTLTVSS VL: DIQMTQSPSSLSASVGDRVTITCRSSQSITFDYKNYLAWYQQKPGKAPKLLIYWGSSLQSGVPSRFSGSGSGTDFTLTISSLQPEDFATYYCQQHYRTPPSFGQGTKVEIK | 0.391 |
| FX-3-2-m3 (antibody, V domains shown) VH: QVQLVESGGGVVQPGRSLRLSCAASGFTFSTYAMHWVRQAPGKGLEWVAVISYDANYKYYADSVKGRFTISRDNSKNTLYLQMNSLRAEDTAVYYCAKDSQLRSLLYFEWLSQGYFDYWGQGTLVTVSS VL: DIQMTQSPSSLSASVGDRVTITCRSSQSITFDYKNYLAWYQQKPGKAPKLLIYWGSSLQSGVPSRFSGSGSGTDFTLTISSLQPEDFATYYCQQHYRTPPSFGQGTKVEIK | 0.521 |
| FX-10-2-m3 (antibody, V domains shown) VH: QVQLVQSGAEVKKPGSSVKVSCKASGFTFSTYAIHWVRQAPGQGLEWMGVISYDANYKYYAQKFQGRVTITRDNSKSTAYMELSSLRSEDTAVYYCARDSRLRSLLYFEWLSQGYFDYWGQGTTLTVSS VL: DIQMTQSPSSLSASVGDRVTITCRSSQSITFDYKNYLAWYQQKPGKAPKLLIYWGSSLQSGVPSRFSGSGSGTDFTLTISSLQPEDFATYYCQQHYRTPPSFGQGTKVEIK | 0.681 |
| FX-5-2-m3 (antibody, V domains shown) VH: QVQLVESGGGVVQPGRSLRLSCAASGFTFSTYAMHWVRQAPGKGLEWVCVISYDANYKYYADSVKGRFTCSRDNSKNTLYLQMNSLRAEDTAVYYCARDSRLRSLLYFEWLSQGYFDYWGQGTLVTVSS VL: DIQMTQSPSSLSASVGDRVTITCRSSQSITFDYKNYLAWYQQKPGKAPKLLIYWGSSLQSGVPSRFSGSGSGTDFTLTISSLQPEDFATYYCQQHYRTPPSFGQGTKVEIK | 0.992 |
| FX-5-6-m3 (antibody, V domains shown) VH: QVQLVESGGGVVQPGRSLRLSCAASGFTFSTYAMHWVRQAPGKGLEWVCVISYDANYKYYADSVKGRFTCSRDNSKNTLYLQMNSLRAEDTAVYYCARDSRLRSLLYFEWLSQGYFDYWGQGTLVTVSS VL: EIVMTQSPATLSVSPGERATLSCRSSQSITFDYKNYLAWYQQKPGQAPRLLIYWGSTRATGIPARFSGSGSGTEFTLTISSLQSEDFAVYYCQQHYRTPPSFGQGTKVEIK | 1.13 |
| FX-10-6-m3 (antibody, V domains shown) VH: QVQLVQSGAEVKKPGSSVKVSCKASGFTFSTYAIHWVRQAPGQGLEWMGVISYDANYKYYAQKFQGRVTITRDNSKSTAYMELSSLRSEDTAVYYCARDSRLRSLLYFEWLSQGYFDYWGQGTTLTVSS VL: EIVMTQSPATLSVSPGERATLSCRSSQSITFDYKNYLAWYQQKPGQAPRLLIYWGSTRATGIPARFSGSGSGTEFTLTISSLQSEDFAVYYCQQHYRTPPSFGQGTKVEIK | 0.862 |
| FX-7-6-m3 (antibody, V domains shown) VH: EVQLLESGGGLVQPGGSLRLSCAASGFTFSSYAMHWVRQAPGKGLEWVSVISYDANYKYYADSVKGRFTISRDNSKNTLYLQMNSLRAEDTAVYYCAKDSQLRSLLYFEWLSQGYFDYWGQGTTLTVSS VL: EIVMTQSPATLSVSPGERATLSCRSSQSITFDYKNYLAWYQQKPGQAPRLLIYWGSTRATGIPARFSGSGSGTEFTLTISSLQSEDFAVYYCQQHYRTPPSFGQGTKVEIK | 0.703 |
| FX-3-6-m3 (antibody, V domains shown) VH: QVQLVESGGGVVQPGRSLRLSCAASGFTFSTYAMHWVRQAPGKGLEWVAVISYDANYKYYADSVKGRFTISRDNSKNTLYLQMNSLRAEDTAVYYCAKDSQLRSLLYFEWLSQGYFDYWGQGTLVTVSS VL: EIVMTQSPATLSVSPGERATLSCRSSQSITFDYKNYLAWYQQKPGQAPRLLIYWGSTRATGIPARFSGSGSGTEFTLTISSLQSEDFAVYYCQQHYRTPPSFGQGTKVEIK | 0.774 |
